Assay results: paper PMC8108516 (Molecular Biology of the Cell, 2021)

Legend:
Experiment in all cases: pull-down
[1] = molecular target: T1, GST tagged Pom1^FL (S. pombe, UniProt Q09690 1-1087)
T1 sequence (looked up): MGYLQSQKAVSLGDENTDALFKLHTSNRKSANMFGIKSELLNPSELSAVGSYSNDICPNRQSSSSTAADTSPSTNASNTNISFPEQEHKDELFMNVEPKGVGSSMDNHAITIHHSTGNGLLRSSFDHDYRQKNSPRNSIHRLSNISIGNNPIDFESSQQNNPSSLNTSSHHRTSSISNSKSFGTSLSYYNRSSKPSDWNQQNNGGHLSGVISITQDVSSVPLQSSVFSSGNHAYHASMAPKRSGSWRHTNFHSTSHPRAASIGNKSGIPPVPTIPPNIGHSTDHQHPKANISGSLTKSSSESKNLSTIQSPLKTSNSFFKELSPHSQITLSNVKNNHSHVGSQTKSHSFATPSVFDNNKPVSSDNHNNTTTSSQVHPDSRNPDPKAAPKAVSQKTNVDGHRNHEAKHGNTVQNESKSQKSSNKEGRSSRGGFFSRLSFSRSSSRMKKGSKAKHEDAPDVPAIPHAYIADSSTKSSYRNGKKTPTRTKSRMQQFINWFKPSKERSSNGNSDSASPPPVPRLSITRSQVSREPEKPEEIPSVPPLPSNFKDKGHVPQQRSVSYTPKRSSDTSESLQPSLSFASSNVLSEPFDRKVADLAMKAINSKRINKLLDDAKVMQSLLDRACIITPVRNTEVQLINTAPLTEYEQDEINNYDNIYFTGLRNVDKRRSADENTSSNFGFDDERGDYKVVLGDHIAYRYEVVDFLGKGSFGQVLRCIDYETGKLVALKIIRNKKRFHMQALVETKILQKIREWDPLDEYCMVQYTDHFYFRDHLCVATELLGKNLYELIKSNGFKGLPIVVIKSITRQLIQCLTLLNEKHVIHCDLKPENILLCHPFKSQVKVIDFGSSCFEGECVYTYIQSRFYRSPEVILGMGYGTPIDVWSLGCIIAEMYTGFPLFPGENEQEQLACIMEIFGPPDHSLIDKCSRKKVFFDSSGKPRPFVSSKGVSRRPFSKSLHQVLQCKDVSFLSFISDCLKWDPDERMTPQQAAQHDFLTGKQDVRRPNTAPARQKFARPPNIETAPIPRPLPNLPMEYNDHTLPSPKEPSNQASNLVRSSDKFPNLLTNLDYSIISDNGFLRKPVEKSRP

[2] = molecular target: T2, GST tagged Pom1^Δaa305N (S. pombe, UniProt Q09690 306-1087)
T2 sequence (looked up): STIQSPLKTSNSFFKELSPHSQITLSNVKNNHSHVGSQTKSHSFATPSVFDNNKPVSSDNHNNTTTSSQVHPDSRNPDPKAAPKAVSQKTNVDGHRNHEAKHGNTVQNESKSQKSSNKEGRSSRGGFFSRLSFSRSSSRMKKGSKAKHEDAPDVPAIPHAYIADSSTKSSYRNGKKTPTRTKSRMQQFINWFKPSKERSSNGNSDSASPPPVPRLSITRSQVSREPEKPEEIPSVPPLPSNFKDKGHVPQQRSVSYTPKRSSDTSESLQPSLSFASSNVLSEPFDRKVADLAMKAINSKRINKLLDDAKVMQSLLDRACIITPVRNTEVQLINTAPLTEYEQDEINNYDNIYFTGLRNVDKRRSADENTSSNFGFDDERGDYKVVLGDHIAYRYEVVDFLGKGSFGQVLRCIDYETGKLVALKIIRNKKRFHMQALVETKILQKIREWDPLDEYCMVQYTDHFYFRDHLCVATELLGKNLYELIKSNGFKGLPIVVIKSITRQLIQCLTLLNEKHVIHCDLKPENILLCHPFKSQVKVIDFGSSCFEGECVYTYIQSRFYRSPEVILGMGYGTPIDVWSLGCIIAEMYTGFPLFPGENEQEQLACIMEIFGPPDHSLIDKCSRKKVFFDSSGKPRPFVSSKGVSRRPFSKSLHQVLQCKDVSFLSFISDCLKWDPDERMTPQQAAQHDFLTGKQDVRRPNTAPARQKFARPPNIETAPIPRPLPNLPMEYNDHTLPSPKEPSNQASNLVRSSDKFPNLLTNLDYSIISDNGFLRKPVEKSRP

[3] = molecular target: T3, GST tagged Pom1^aa605-1087 (S. pombe, UniProt Q09690 605-1087)
T3 sequence (looked up): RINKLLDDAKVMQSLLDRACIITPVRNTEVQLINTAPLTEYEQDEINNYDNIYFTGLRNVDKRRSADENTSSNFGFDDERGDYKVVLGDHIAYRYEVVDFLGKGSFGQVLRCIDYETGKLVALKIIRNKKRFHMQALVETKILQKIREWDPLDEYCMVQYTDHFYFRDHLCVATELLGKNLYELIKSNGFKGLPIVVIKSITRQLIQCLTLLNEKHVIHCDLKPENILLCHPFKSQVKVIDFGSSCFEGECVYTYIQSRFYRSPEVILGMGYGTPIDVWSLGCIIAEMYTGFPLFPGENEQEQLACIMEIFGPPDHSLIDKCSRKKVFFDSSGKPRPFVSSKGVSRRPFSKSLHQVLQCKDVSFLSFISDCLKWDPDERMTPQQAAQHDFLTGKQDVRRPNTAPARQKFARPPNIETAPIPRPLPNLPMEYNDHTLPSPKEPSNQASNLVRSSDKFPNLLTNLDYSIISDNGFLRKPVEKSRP

Measured: binding result

B1: MBP-tagged Ptc1^FL (enzyme, S. pombe, UniProt P40371 1-347, looked up)
chain: MKGSHPNAGSLLEPLHKLNPFSENSTSGHRKNASDHSADGETRPIAIEMKDSKGNTVPVGNSRPSKASNWLAGLMEDKNQRWRRSMEDTHICLYDFGGNQDDGFVAVYDGHAGIQASDYCQKNLHKVLLEKVRNEPDRLVTDLMDETFVEVNSKIAKATHNDICGCTAAVAFFRYEKNRTRRVLYTANAGDARIVLCRDGKAIRLSYDHKGSDANESRRVTQLGGLMVQNRINGVLAVTRALGDTYLKELVSAHPFTTETRIWNGHDEFFIIACDGLWDVVSDQEAVDFVRNFVSPREAAVRLVEFALKRLSTDNITCIVVNLTRNPGDLDDSGLTADNDSYSNDYY
binds: [1] | [2] | [3]
